From the RNAGym collection of RNA variant scans (doi:10.7554/elife.80360)

B1: HDV Ribozyme (parent)
chain: GGCCGGCAUGGUCCCAGCCUCCUCGCUGGCGCCGGCUGGGCAACAUUCCGAGGGGACCGUCCCCUCGGUAAUGGCGAAUGGGACCCA

Variants of: B1
Assay: self-cleavage, relative activity (ratio to wild type); higher = more cleavage; co-transcriptional

Question: Which self-cleavage does the source give for GGCCGGCAUGGUCCCAGCCUCAUCGCUGGCGCCGGCUGGGCAACAUUCUGAGGGGACCGUCCCCUCGGUAAUGGCGAAUGGGACCCA [C22A C49U] here?
Answer: Its self-cleavage is 0.338.

Question: With GGCCGGCAUGGUCCCAGCCUCAUCGCUGGCGCCGGCUGGGCAACAUUCCGAGGGGAACGUCCCCUCGGUAAUGGCGAAUGGGACCCA [C22A C57A] as the variant, how does the self-cleavage read?
Answer: The self-cleavage was 0.208.

Question: Which self-cleavage does the source give for GGCCGGCAUGGUCCCAGCCUCAUCGCUGGCGCCGGCUGGGCAACAUUCCGAGGGGACCGUCCCCUGGGUAAUGGCGAAUGGGACCCA [C22A C66G] here?
Answer: The self-cleavage was 0.373.

Question: With GGCCGGCAUGGUCCCAGCCUCAUCGCUGGCGCCGGCUGGGCAACAUUCCGAGGGGACCGUCCCCUCGGUAAUGGCGAAUGGGACCCC [C22A A87C] as the variant, how does the self-cleavage read?
Answer: Its self-cleavage is 0.491.

Question: With GGCCGGCAUGGUCCCAGCCUUCUCGCUGGCGCCGGCUGGGCAACAUUCCGAGGGGACCGUCCCCUCGGUAAUGGCGAAAGGGACCCA [C21U U79A] as the variant, how does the self-cleavage read?
Answer: The self-cleavage was 0.0573.

Question: With GGCCGGCAUGGUCCCAGCCUCAUCGCUGGCGACGGCUGGGCAACAUUCCGAGGGGACCGUCCCCUCGGUAAUGGCGAAUGGGACCCA [C22A C32A] as the variant, how does the self-cleavage read?
Answer: The self-cleavage was 0.0678.

Question: Which self-cleavage does the source give for GGCCGGCAUGGUCCCAGCCUCAUCGCUGGCGGCGGCUGGGCAACAUUCCGAGGGGACCGUCCCCUCGGUAAUGGCGAAUGGGACCCA [C22A C32G] here?
Answer: The self-cleavage was 0.0437.

Question: With GGCCGGCAUGGUCCCAGCCUCAUCGCUGGCGCCGGCUAGGCAACAUUCCGAGGGGACCGUCCCCUCGGUAAUGGCGAAUGGGACCCA [C22A G38A] as the variant, how does the self-cleavage read?
Answer: The self-cleavage was 0.0608.

Question: Which self-cleavage does the source give for GGCCGGCAUGGUCCCAGCCUCAUCGCUGGCGCCGGCUUGGCAACAUUCCGAGGGGACCGUCCCCUCGGUAAUGGCGAAUGGGACCCA [C22A G38U] here?
Answer: The self-cleavage was 0.554.

Question: Which self-cleavage does the source give for GGCCGGCAUGGUCCCAGCCUCAUCGCUGGCGCCGGCUGGGCAACAUUCCGAGGGGACCGUCCCCUCGGUAAUGGCGAAUGGGACCUA [C22A C86U] here?
Answer: The self-cleavage was 0.293.

Question: With GGCCGGCAUGGUCCCAGCCUCAUCGCUGGCGCCGGCUGGGCAACAUUCCGAGGGGACCGUCCCCUCGGUAAUGGCGAAUGGGCCCCA [C22A A83C] as the variant, how does the self-cleavage read?
Answer: Its self-cleavage is 0.147.

Question: For GGCCGGCAUGGUCCCAGCCUCAUCGCUGGCGCCGGCUGGGCGACAUUCCGAGGGGACCGUCCCCUCGGUAAUGGCGAAUGGGACCCA [C22A A42G], which self-cleavage is on record?
Answer: The self-cleavage was 0.

Question: With GGCCGGCAUGGUCCCAGCCUCAUCGCUGGCGCCGGCUGGGCCACAUUCCGAGGGGACCGUCCCCUCGGUAAUGGCGAAUGGGACCCA [C22A A42C] as the variant, how does the self-cleavage read?
Answer: The self-cleavage was 0.

Question: Which self-cleavage does the source give for GGCCGGCAUGGUCCCAGCCUCAUCGCUGGCGCCGGCUGGGCAAUAUUCCGAGGGGACCGUCCCCUCGGUAAUGGCGAAUGGGACCCA [C22A C44U] here?
Answer: The self-cleavage was 0.0282.

Question: For GGCCGGCAUGGUCCCAGCCUCAUCGCUGGCGCCGGCUGGGUAACAUUCCGAGGGGACCGUCCCCUCGGUAAUGGCGAAUGGGACCCA [C22A C41U], which self-cleavage is on record?
Answer: The self-cleavage was 0.252.

Question: Which self-cleavage does the source give for GGCCGGCAUGGUCCCAGCCUCAUCGCUGGCGCCGGCUGGGCAACGUUCCGAGGGGACCGUCCCCUCGGUAAUGGCGAAUGGGACCCA [C22A A45G] here?
Answer: The self-cleavage was 0.225.

Question: Which self-cleavage does the source give for GGCCGGCAUGGUCCCAGCCUCAUCGCUGGCGCCGGCUGGGCAACAUUCCGAGAGGACCGUCCCCUCGGUAAUGGCGAAUGGGACCCA [C22A G53A] here?
Answer: Its self-cleavage is 0.222.

Question: For GGCCGGCAUGGUCCCAGCCUCAUCGCUGGCGCCGGCUGGGCAACAUUCCGAGGGGACCGUCCCCUCGGUAAUGGAGAAUGGGACCCA [C22A C75A], which self-cleavage is on record?
Answer: Its self-cleavage is 0.0308.

Question: For GGCCGGCAUGGUCCCAGCCUCAUCGCUGGCGCCGGCUGGGCAACAUUCCGAGGGGACCGUCCCCUCGGUAAUGGGGAAUGGGACCCA [C22A C75G], which self-cleavage is on record?
Answer: Its self-cleavage is 0.0604.

Question: With GGCCGGCAUGGUCCCAGCCUCAUCGCUGGCGCCGGCUGGACAACAUUCCGAGGGGACCGUCCCCUCGGUAAUGGCGAAUGGGACCCA [C22A G40A] as the variant, how does the self-cleavage read?
Answer: Its self-cleavage is 0.367.

Question: Which self-cleavage does the source give for GGCCGGCAUGGUCCCAGCCUCAUCGCUGGCGCCGGCUGGUCAACAUUCCGAGGGGACCGUCCCCUCGGUAAUGGCGAAUGGGACCCA [C22A G40U] here?
Answer: Its self-cleavage is 0.0978.

Question: For GGCCGGCAUGGUCCCAGCCUCAUCGCUGGCGCCGGCUGGGCAUCAUUCCGAGGGGACCGUCCCCUCGGUAAUGGCGAAUGGGACCCA [C22A A43U], which self-cleavage is on record?
Answer: Its self-cleavage is 0.0437.

Question: Which self-cleavage does the source give for GGCCGGCAUGGUCCCAGCCUCAUCGCUGGCGCCGGCUGGGCAACAUUCCAAGGGGACCGUCCCCUCGGUAAUGGCGAAUGGGACCCA [C22A G50A] here?
Answer: The self-cleavage was 0.235.

Question: For GGCCGGCAUGGUCCCAGCCUCAUCGCUGUCGCCGGCUGGGCAACAUUCCGAGGGGACCGUCCCCUCGGUAAUGGCGAAUGGGACCCA [C22A G29U], which self-cleavage is on record?
Answer: Its self-cleavage is 0.128.

Question: For GGCCGGCAUGGUCCCAGCCUCAUCGCUGGCGCCGGCUGGGCAACAUUCCGCGGGGACCGUCCCCUCGGUAAUGGCGAAUGGGACCCA [C22A A51C], which self-cleavage is on record?
Answer: The self-cleavage was 0.341.

Question: With GGCCGGCAUGGUCCCAGCCUCAUAGCUGGCGCCGGCUGGGCAACAUUCCGAGGGGACCGUCCCCUCGGUAAUGGCGAAUGGGACCCA [C22A C24A] as the variant, how does the self-cleavage read?
Answer: Its self-cleavage is 0.188.

Question: Which self-cleavage does the source give for GGCCGGCAUGGUCCCAGCCUCAUUGCUGGCGCCGGCUGGGCAACAUUCCGAGGGGACCGUCCCCUCGGUAAUGGCGAAUGGGACCCA [C22A C24U] here?
Answer: Its self-cleavage is 0.0361.

Question: For GGCCGGCAUGGUCCCAGCCUCAUGGCUGGCGCCGGCUGGGCAACAUUCCGAGGGGACCGUCCCCUCGGUAAUGGCGAAUGGGACCCA [C22A C24G], which self-cleavage is on record?
Answer: Its self-cleavage is 0.

Question: With GGCCGGCAUGGUCCCAGCCUCAUCGCUGGCGCCGGCUGGGCAACAUUGCGAGGGGACCGUCCCCUCGGUAAUGGCGAAUGGGACCCA [C22A C48G] as the variant, how does the self-cleavage read?
Answer: Its self-cleavage is 0.363.

Question: Which self-cleavage does the source give for GGCCGGCAUGGUCCCAGCCUCAUCGCUGGCGCCUGCUGGGCAACAUUCCGAGGGGACCGUCCCCUCGGUAAUGGCGAAUGGGACCCA [C22A G34U] here?
Answer: The self-cleavage was 0.0536.

Question: Which self-cleavage does the source give for GGCCGGCAUGGUCCCAGCCUCAUCGCUGGAGCCGGCUGGGCAACAUUCCGAGGGGACCGUCCCCUCGGUAAUGGCGAAUGGGACCCA [C22A C30A] here?
Answer: The self-cleavage was 0.0405.

Question: Which self-cleavage does the source give for GGCCGGCAUGGUCCCAGCCUCAUCGCUGGUGCCGGCUGGGCAACAUUCCGAGGGGACCGUCCCCUCGGUAAUGGCGAAUGGGACCCA [C22A C30U] here?
Answer: The self-cleavage was 0.121.
